Earlier results in publication PMC8393326, “A Thermodynamic Analysis of the Binding Specificity between Four Human PDZ Domains and Eight Host, Viral and Designed Ligands” (Biomolecules, 2021).

What was measured:
[1] = biological target: phosphorylated ERBB2 peptide (Homo sapiens)
[2] = biological target: ERBB2 peptide (Homo sapiens)

Sequence of Erbin PDZ (Q96RT1 1318-1412): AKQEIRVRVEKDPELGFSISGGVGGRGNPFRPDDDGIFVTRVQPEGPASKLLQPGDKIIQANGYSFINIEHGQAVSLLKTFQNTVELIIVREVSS

Substance: Erbin PDZ (from UniProt Q96RT1)
- Kd [1]: 128 µM
- Kd [2]: 50 µM
